The assay has as its target DPEP1-Avi: porcine DPEP1 ectodomain (residues 17-385) with Strep and Avi tags, biotinylated (porcine (Sus scrofa)) (UniProt P22412). The assay can be described thus: BLI. On the technique in general: Biolayer interferometry detects binding as a change in optical thickness at a sensor tip.

Usually Kd stands for the constant that tells how readily two partners part at equilibrium. The low end stands for a tighter complex, the high end for a looser complex.

UniProt P22412, sequence (P22412 17-385): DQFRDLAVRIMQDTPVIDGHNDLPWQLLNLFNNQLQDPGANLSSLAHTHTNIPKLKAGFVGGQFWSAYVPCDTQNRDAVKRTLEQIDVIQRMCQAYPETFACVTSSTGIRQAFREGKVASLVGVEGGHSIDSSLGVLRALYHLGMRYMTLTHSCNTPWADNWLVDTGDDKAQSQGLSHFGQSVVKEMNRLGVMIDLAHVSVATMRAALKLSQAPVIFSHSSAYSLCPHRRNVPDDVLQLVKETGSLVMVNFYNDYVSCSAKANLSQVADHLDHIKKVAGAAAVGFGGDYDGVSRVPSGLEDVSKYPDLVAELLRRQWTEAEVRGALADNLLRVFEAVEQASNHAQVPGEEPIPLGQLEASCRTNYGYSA

On to “PHEV spike RBD (residues 327-605), from Expi293F cells, with His, Strep and Avi tags (domain or fragment)”, for which the equilibrium dissociation constant (Kd) is 1500 nM.
